According to US20230068663A1 (University of Texas, published 2023):

Key:
[1] = biological target: T1, LILRB2 chimeric receptor on LILRB2 reporter cells (extracellular domain of LILRB2 fused with … (UniProt Q8N423 22-460)); experiment: cell-based or functional assay
[2] = biological target: T1, LILRB2 chimeric receptor on LILRB2 …; experiment: flow cytometry on LILRB2 reporter cells, APC anti-human IgG
Excerpt: (§1) FIGS. 1A-C. Screening specific monoclonal antibodies for LILRB2. […] Binding of monoclonal antibodies was screened using flow cytometer on LILRB2 reporter cells. Bound antibodies were detected with Allophycocyanin (APC)-labeled goat anti-human IgG secondary antibody. (FIG. 1B) Quantification of binding ability of monoclonal antibodies to LILRB2 reporter cells.
(§2) Screening specific monoclonal antibodies for LILRB2. The inventors employed a stable reporter cell system to detect the binding ability of selected monoclonal antibodies to LILRB2. In this chimeric receptor reporter system, the extracellular domain (ECD) of LILRB2 is fused with transmembrane/intracellular domains of PILRb that associates with the adaptor protein DAP12 containing an immunoreceptor tyrosine-based activation motif. 27 monoclonal antibodies were screened. The LILRB2 reporter cells were incubated with selected monoclonal antibody, then labeled with (APC) goat anti-human IgG secondary antibody. […] The inventors generated LILRBAs and LILRBs reporters stably transduced with each receptor's extracellular domain (ECD).

[3] = biological target: T1, LILRB2 chimeric receptor on LILRB2 …; experiment: flow cytometry, LILRB2 reporter cells
Excerpt: as §1, §2

[4] = biological target: T2, endogenous LILRB2 on human myeloid cells / primary monocytes (human, UniProt Q8N423 22-597); experiment: flow cytometry, CD14+CD16- monocytes, AF647-conjugated antibody
T2 construct: whole, on cells; also called cells expressing endogenous LILRB2
Experimental: FIG. 32. Binding of LILRB2 antibodies on CD14⁺CD16-monocytes isolated from human PBMC from healthy donors. Fifty thousand cells were incubated for 30 minutes at 4° C. with a dilution series (40-0.0006 μg/mL) of LILRB2 antibodies directly conjugated to AF647 in a final volume of 100 μL. Data shown is averaged geometric mean of fluorescence intensity from duplicate samples acquired in a flow cytometer (BD FACS Celesta) from one donor and is representative of 2 experiments with cells isolated from different donors.

[5] = biological target: T3, full length human LILRB2 stably expressed on HEK293 cells (human, UniProt Q8N423 22-597); experiment: competition flow cytometry, inhibition of SEMA4A-hFc-AF647 binding to HEK293_LILRB2 cells
T3 construct: whole, on cells; also called HEK293_LILRB2
Experimental: FIG. 34. […] Incubation was performed for 30 minutes at 4° C. Data shown is averaged geometric mean of fluorescence intensity ± standard error of the mean (s.e.m.) from duplicate samples acquired in a flow cytometer (BD FACS Celesta).

[6] = biological target: T4, LILRA2; experiment: flow cytometry, reporter cells
T4 construct: also called LILRA2 reporter cells; not shown: transmembrane/intracellular domains of PILRb, the display part of the chimeric reporter receptor
T4 sequence (chain, as listed by the source limits assumed): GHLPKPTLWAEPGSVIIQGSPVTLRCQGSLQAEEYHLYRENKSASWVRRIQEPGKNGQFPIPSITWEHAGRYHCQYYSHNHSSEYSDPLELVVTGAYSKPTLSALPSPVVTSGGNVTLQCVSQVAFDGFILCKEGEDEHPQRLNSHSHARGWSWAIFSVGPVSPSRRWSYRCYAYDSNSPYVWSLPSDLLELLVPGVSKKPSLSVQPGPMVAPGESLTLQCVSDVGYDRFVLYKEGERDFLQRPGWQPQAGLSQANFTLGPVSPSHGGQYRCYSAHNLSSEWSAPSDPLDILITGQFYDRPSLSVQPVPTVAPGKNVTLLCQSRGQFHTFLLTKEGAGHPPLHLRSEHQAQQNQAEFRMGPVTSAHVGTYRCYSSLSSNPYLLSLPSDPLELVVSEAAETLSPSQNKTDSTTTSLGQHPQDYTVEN
Experimental: (§3) FIG. 29. Binding of LILRB2 antibodies on reporter cell line expressing ectodomain of LILR family proteins on cell surface. Bound antibodies were detected with anti-human Fc-specific secondary antibody (2nd Ab) conjugated to AF647. […] All incubations were performed for 30 minutes at 4° C. Data shown is mean fluorescence intensity after sample acquisition in flow cytometer.

[7] = biological target: T1, LILRB2 chimeric receptor on LILRB2 …; experiment: flow cytometry, reporter cells
Experimental: as §3

[8] = biological target: T5, LILRB3; experiment: flow cytometry, reporter cells
T5 construct: also called LILRB3 reporter cells; not shown: transmembrane/intracellular domains of PILRb, the display part of the chimeric reporter receptor
Experimental: as §3

[9] = biological target: T6, LILRA5; experiment: flow cytometry, reporter cells
T6 construct: also called LILRA5 reporter cells
T6 sequence (chain, as listed by the source limits assumed): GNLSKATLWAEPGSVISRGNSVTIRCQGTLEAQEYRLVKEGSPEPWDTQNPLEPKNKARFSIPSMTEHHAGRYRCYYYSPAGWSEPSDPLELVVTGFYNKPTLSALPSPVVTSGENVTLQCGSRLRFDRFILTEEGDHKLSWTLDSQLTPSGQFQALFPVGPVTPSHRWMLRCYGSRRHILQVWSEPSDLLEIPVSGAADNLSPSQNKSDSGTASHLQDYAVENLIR
Experimental: as §3

[10] = biological target: T7, LILRA1 on reporter cells (extracellular domain) (UniProt O75019 17-461, limits assumed); experiment: flow cytometry, reporter cells
T7 construct: extracellular domain
T7 sequence (O75019 17-461 limits assumed): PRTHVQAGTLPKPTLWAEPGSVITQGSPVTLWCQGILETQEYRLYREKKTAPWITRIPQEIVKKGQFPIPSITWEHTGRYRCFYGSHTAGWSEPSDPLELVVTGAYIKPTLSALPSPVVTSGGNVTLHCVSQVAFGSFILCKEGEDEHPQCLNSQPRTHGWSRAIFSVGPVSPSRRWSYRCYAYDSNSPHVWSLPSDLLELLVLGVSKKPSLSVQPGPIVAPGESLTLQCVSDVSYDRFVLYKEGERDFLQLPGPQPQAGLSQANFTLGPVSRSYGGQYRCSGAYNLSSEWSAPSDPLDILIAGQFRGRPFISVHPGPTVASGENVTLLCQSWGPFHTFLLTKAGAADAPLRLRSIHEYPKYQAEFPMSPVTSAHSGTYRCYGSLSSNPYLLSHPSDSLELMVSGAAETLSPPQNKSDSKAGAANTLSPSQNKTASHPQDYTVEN
Experimental: as §3

[11] = biological target: T8, LILRA3; experiment: flow cytometry, reporter cells
T8 construct: also called LILRA3 reporter cells; not shown: transmembrane/intracellular domains of PILRb, the display part of the chimeric reporter receptor
T8 sequence (chain, as listed by the source limits assumed): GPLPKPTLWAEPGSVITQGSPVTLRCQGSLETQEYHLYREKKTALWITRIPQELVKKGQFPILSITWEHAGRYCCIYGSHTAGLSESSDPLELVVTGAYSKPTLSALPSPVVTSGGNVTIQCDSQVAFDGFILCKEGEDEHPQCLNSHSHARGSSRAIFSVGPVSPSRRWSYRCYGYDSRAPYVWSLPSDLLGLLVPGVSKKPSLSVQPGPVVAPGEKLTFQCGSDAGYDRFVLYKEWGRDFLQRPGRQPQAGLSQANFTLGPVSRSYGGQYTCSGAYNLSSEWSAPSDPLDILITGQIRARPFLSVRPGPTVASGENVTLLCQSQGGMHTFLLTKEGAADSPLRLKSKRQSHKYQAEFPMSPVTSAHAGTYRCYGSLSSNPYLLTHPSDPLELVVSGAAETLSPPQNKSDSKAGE
Experimental: as §3

[12] = biological target: T9, LILRB4; experiment: flow cytometry, reporter cells
T9 construct: also called LILRB4 reporter cells; not shown: transmembrane/intracellular domains of PILRb, the display part of the chimeric reporter receptor
Experimental: as §3

[13] = biological target: T10, LILRB1; experiment: flow cytometry, reporter cells
T10 construct: also called LILRB1 reporter cells; not shown: transmembrane/intracellular domains of PILRb, the display part of the chimeric reporter receptor
T10 sequence (chain, as listed by the source limits assumed): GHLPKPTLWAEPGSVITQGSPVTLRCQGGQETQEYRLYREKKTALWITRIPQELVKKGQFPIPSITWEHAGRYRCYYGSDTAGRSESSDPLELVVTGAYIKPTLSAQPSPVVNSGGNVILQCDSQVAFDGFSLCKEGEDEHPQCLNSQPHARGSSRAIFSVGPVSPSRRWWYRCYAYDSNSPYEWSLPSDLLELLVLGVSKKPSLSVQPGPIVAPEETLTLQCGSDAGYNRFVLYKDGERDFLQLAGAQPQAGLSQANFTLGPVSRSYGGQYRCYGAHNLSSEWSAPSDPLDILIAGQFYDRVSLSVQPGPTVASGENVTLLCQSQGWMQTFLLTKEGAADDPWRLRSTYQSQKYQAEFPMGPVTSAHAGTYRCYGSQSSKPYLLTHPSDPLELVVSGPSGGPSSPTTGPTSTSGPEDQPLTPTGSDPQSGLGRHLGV
Experimental: as §3

[14] = biological target: T11, LILRA6; experiment: flow cytometry, reporter cells
T11 construct: also called LILRA6 reporter cells
T11 sequence (chain, as listed by the source limits assumed): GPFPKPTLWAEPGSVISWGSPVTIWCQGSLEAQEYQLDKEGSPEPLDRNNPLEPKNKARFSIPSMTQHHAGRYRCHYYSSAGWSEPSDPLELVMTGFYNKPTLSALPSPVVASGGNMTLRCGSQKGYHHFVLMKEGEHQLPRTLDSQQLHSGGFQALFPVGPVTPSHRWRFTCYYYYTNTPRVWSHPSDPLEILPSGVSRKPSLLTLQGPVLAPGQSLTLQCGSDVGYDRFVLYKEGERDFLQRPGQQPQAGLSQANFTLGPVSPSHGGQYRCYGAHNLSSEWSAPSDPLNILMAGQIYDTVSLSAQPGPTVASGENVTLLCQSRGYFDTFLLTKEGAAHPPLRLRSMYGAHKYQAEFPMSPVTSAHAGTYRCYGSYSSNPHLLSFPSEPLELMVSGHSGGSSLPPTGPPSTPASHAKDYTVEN
Experimental: as §3

[15] = biological target: T12, LILRA4; experiment: flow cytometry, reporter cells
T12 construct: also called LILRA4 reporter cells
T12 sequence (chain, as listed by the source limits assumed): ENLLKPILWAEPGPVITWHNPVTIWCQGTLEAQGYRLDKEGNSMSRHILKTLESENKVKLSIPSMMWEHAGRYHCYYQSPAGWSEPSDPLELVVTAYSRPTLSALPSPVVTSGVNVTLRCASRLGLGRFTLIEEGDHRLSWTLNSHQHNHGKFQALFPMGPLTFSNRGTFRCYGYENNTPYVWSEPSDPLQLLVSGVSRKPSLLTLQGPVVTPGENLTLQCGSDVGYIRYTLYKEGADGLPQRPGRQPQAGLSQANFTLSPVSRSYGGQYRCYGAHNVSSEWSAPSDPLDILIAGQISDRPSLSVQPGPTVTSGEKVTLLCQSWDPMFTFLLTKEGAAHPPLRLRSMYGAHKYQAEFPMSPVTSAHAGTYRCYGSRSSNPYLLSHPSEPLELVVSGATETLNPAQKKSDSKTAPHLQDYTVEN
Experimental: as §3

[16] = biological target: T13, LAIR1 on reporter cells (UniProt Q6GTX8 22-165, limits assumed); experiment: flow cytometry, reporter cells
T13 sequence (looked up): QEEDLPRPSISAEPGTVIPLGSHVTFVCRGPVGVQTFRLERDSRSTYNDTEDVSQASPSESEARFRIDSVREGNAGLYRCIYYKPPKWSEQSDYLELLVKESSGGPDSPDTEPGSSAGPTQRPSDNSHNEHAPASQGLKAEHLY
Experimental: as §3

[17] = biological target: T14, LILRB5; experiment: flow cytometry, reporter cells
T14 construct: also called LILRB5 reporter cells; not shown: transmembrane/intracellular domains of PILRb, the display part of the chimeric reporter receptor
T14 sequence (chain, as listed by the source limits assumed): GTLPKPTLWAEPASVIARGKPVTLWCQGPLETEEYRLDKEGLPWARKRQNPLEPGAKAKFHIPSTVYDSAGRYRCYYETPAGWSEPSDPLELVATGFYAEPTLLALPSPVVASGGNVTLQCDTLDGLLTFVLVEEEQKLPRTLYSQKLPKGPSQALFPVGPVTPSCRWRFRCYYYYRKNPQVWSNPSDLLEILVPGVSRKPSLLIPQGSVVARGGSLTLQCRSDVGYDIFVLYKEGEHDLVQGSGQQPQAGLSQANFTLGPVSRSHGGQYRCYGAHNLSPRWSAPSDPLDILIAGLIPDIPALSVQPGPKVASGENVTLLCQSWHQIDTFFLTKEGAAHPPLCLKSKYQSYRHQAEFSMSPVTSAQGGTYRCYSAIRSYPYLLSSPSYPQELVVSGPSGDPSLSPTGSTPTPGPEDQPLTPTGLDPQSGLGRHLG
Experimental: as §3

B1: B2-16 (antibody, V domains shown)
VH: QVQLVQSGAEVKKPGSSVKVSCKASGGTFSSYAISWVRQAPGQGLEWMGGIIPIFGTANYAQKFQGRVTITADESTSTAYMELSSLRSEDTAVYYCASGIIPDNPYGMDVWGQGTMVSVSS
VL: DIVMTQSPLSLPVTLGQPASISCTSSQSLVYSDGNTYLNWFHQRPGQSPRRLFYKVSNRASGVPDRFSGSGSGTDFTLKISRVEAEDLGVYYCMQGTHWPVTFGQGTRLEIK
notes: also called B2-16_HC; B2-16_LC
Q: Which results are given for B1?
A: Blocking potency (IC50) of GFP expression in LILRB2 reporter cells induced by coated ANGPTL2 [1]: 0.131 µg/mL; percent of LILRB2 reporter cells labeled [2]: > 95%; % of cells anti-hIgG APC+ [3]: 95%; EC50 [4]: 0.547 µg/mL; IC50 [5]: 3.19 µg/mL; MFI [6]: 10; binding result [6]: no binding; MFI [7]: 940; MFI [8]: 10; binding result [8]: no binding; MFI [9]: 12; binding result [9]: no binding; MFI [10]: 12; binding result [10]: no binding; MFI [11]: 10; binding result [11]: no binding; MFI [12]: 14; binding result [12]: no binding; MFI [13]: 10; binding result [13]: no binding; MFI [14]: 12; binding result [14]: no binding; MFI [15]: 10; binding result [15]: no binding; MFI [16]: 24; binding result [16]: no binding; MFI [17]: 11; binding result [17]: no binding

B2: B2-7 (antibody, V domains shown)
VH: EVQLVESGGGVVQPGRSLRLSCAASGFTISSYGMHWVRQAPGKGLEWVAVISYDGSNKYYADSVKGRFTISRDNSKNTLYLQMNSLRVEDTAVYYCAKDLLLRYFDWSPKYYYNGMDVWGQGTMVTVSS
VL: QSVLTQPPSVSVAPGKTARITCGGNNIGSKSVHWYQQKPGQAPVLVVYDDSDRPSGIPERFSGSNSGNTATLTISRVEAGDEADYYCQVWDSSSDHPGVFGTGTKVTVL
notes: also called B2-7_HC; B2-7_LC
Q: Which “Blocking potency (IC50) of GFP expression in LILRB2 reporter cells induced by coated ANGPTL2” value [1] does the source give for B2 here?
A: 0.221 µg/mL

Q: And the “percent of LILRB2 reporter cells labeled” value [2]?
A: > 95%

Q: What about the “% of cells anti-hIgG APC+” value [3] of the same binder?
A: 94.2%

Q: What about the EC50 [4] of the same binder?
A: 0.332 µg/mL

Q: What about the IC50 [5] of the same binder?
A: 2.66 µg/mL

Q: What about the MFI [6] of the same binder?
A: 10

Q: Does B2 bind [6]?
A: no binding

Q: And the MFI [7]?
A: 1160

Q: And the MFI [8]?
A: 11

Q: Does B2 bind [8]?
A: no binding

Q: What about the MFI [9] of the same binder?
A: 11

Q: Does B2 bind [9]?
A: no binding

Q: What about the MFI [10] of the same binder?
A: 12

Q: Does B2 bind [10]?
A: no binding

Q: And the MFI [11]?
A: 10

Q: Does B2 bind [11]?
A: no binding

Q: And the MFI [12]?
A: 15

Q: Does B2 bind [12]?
A: no binding

Q: And the MFI [13]?
A: 10

Q: Does B2 bind [13]?
A: no binding

Q: And the MFI [14]?
A: 11

Q: Does B2 bind [14]?
A: no binding

Q: What about the MFI [15] of the same binder?
A: 10

Q: Does B2 bind [15]?
A: no binding

Q: And the MFI [16]?
A: 23

Q: Does B2 bind [16]?
A: no binding

Q: What about the MFI [17] of the same binder?
A: 11

Q: Does B2 bind [17]?
A: no binding

B3: B2-19 (antibody, V domains shown)
VH: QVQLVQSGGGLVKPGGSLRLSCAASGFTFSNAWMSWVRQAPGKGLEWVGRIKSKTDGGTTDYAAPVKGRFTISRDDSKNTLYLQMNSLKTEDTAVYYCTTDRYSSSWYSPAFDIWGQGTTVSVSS
VL: QPVLTQPPSVSEAPRQRVTISCSGSSSNIGNNVVNWYQQLPGKAPKLLIYYDDLLPSGVSDRFSGSKSGTSASLAISGLQSEDEADYYCATWDDSLNGPVFGGGTKLTVL
notes: also called B2-19_HC; B2-19_LC
Q: Which “Blocking potency (IC50) of GFP expression in LILRB2 reporter cells induced by coated ANGPTL2” value [1] does the source give for B3 here?
A: 0.0485 µg/mL

Q: And the “percent of LILRB2 reporter cells labeled” value [2]?
A: > 95%

Q: What about the “% of cells anti-hIgG APC+” value [3] of the same binder?
A: 95.3%

Q: What about the EC50 [4] of the same binder?
A: 0.219 µg/mL

Q: And the IC50 [5]?
A: 2.12 µg/mL

Q: What about the MFI [6] of the same binder?
A: 10

Q: Does B3 bind [6]?
A: no binding

Q: And the MFI [7]?
A: 1280

Q: What about the MFI [8] of the same binder?
A: 9

Q: Does B3 bind [8]?
A: no binding

Q: And the MFI [9]?
A: 11

Q: Does B3 bind [9]?
A: no binding

Q: And the MFI [10]?
A: 11

Q: Does B3 bind [10]?
A: no binding

Q: And the MFI [11]?
A: 10

Q: Does B3 bind [11]?
A: no binding

Q: What about the MFI [12] of the same binder?
A: 14

Q: Does B3 bind [12]?
A: no binding

Q: And the MFI [13]?
A: 10

Q: Does B3 bind [13]?
A: no binding

Q: What about the MFI [14] of the same binder?
A: 11

Q: Does B3 bind [14]?
A: no binding

Q: And the MFI [15]?
A: 10

Q: Does B3 bind [15]?
A: no binding

Q: And the MFI [16]?
A: 22

Q: Does B3 bind [16]?
A: no binding

Q: And the MFI [17]?
A: 11

Q: Does B3 bind [17]?
A: no binding
